Assay results from patent publication US9932479B2, “Dyes and compositions, and processes for using same in analysis of protein aggregation and other applications” (Enzo Biochem, Inc., priority 2009, dated 2018).

Target: T1, ß-lactoglobulin (Bos taurus, UniProt P02754)
T1 sequence (P02754 17-178): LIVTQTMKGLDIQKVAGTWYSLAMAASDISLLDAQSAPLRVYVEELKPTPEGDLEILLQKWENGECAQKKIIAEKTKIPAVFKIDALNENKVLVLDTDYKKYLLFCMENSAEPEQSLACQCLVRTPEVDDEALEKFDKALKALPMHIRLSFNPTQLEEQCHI
Assay: Chaperone activity assay: heat-induced BLG aggregation, Tol3/S25 readout
Assay type: biochemical
Settings: 0.4 mg/ml HSP 27, 8 mg/ml ß-lactoglobulin (mass ratio 1:20), 68° C.
Protocol: Aggregation of ß-lactoglobulin was monitored in the presence or absence of the chaperone HSP 27. Aggregation of 8 mg/ml ß-lactoglobulin was monitored using 1.25 μM Tol3 and 1.25 μM S25 in PBS, pH 7.4 with 2.5 mM EDTA and 0.05% sodium azide. When the chaperone HSP 27 was added it was added to a final concentration of 0.4 mg/ml. HSP 27 was also run in the absence of R-lactoglobulin as a control. Aggregation was initiated by heating the protein solution to 68° C. in a 96 well half-volume clear plate (Biomol international, Inc). The fluorescence intensity was then recorded every 2 minutes, with shaking between reads. The excitation wavelength was set to 550 nm and the emission was set to 610 nm on a BMG Fluorstar plate reader. The fluorescence intensity of the starting point was subtracted from the remaining points. […] Since Hsp 27 is binding with unfolded BLG intermediate, thus preventing protein aggregation, these styryl cyanine dyes are detecting protein aggregation, as opposed to unfolding.

Substance: Hsp 27: heat shock protein, chaperone
- Effect on heat-induced aggregation of BLG: significantly prevent the aggregation of BLG
